For 36 molecules, Kd results are on record in paper PMC10786891, “Massively parallel profiling of RNA-targeting CRISPR-Cas13d”.

T1: EsCas13d, nuclease-dead (Eubacterium siraeum, UniProt B0MS50, R295A;H300A;R849A;H854A)
T1 sequence: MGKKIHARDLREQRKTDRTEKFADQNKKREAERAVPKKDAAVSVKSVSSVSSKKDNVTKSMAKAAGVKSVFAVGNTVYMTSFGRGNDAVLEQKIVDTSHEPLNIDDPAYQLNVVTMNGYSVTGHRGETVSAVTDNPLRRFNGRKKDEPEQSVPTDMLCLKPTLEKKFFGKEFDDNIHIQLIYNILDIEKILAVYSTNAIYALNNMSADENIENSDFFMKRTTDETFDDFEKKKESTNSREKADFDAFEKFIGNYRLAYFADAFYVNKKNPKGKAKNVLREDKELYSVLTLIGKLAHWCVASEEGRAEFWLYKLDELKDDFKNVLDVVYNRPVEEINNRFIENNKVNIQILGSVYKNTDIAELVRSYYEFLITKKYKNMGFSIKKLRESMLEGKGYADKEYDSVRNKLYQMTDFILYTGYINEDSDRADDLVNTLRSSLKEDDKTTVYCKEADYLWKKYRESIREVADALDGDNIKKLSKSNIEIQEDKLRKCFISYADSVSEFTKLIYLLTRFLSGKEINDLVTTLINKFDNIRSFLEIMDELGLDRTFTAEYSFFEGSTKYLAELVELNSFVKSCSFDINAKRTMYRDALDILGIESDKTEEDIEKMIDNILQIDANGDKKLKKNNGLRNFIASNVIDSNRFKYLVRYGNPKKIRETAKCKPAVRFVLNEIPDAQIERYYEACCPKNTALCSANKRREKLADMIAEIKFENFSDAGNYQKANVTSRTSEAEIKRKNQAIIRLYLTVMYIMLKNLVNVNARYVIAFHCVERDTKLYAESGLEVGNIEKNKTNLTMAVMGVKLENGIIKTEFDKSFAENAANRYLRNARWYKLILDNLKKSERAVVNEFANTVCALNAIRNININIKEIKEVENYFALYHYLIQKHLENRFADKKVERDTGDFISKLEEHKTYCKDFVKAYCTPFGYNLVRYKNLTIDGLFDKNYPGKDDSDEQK

B1: target 2 MT 5'PFS CAG 3'PFS UGA (mixed)
RNA 1: CACCCGUGCAAAAUUGCAGGGGUCUAAAACCUUCUCCAAAUUGUUUCAUCCU
RNA 2: GGGAAUGGAUCCACAUCUACGAAUUCCAGAGGAUGAAACAAUUUGGAGAAGUGAAGAUCGGAAGAGCACACGU
B2: target 2 MT 5'PFS ACA 3'PFS AUC (mixed)
RNA 1: B1 RNA 1
RNA 2: B1 RNA 2 with C27A, A28C, G29A, U52A, G53U, A54C
B3: target 2 MT 5'PFS UAU 3'PFS CGG (mixed)
RNA 1: B1 RNA 1
RNA 2: B1 RNA 2 with C27U, G29U, U52C, A54G
B4: target 2 MT 5'PFS CUC 3'PFS UUU (mixed)
RNA 1: B1 RNA 1
RNA 2: B1 RNA 2 with A28U, G29C, G53U, A54U
B5: target 2 MT 5'PFS AAG 3'PFS ACG (mixed)
RNA 1: B1 RNA 1
RNA 2: B1 RNA 2 with C27A, U52A, G53C, A54G
B6: target 2 MT 5'PFS UAU 3'PFS AGA (mixed)
RNA 1: B1 RNA 1
RNA 2: B1 RNA 2 with C27U, G29U, U52A
B7: target 2 MT 5'PFS CAC 3'PFS ACU (mixed)
RNA 1: B1 RNA 1
RNA 2: B1 RNA 2 with G29C, U52A, G53C, A54U
B8: target 2 MT 5'PFS UAU 3'PFS AGU (mixed)
RNA 1: B1 RNA 1
RNA 2: B1 RNA 2 with C27U, G29U, U52A, A54U
B9: target 2 MT 5'PFS GAU 3'PFS UCG (mixed)
RNA 1: B1 RNA 1
RNA 2: B1 RNA 2 with C27G, G29U, G53C, A54G
B10: target 2 MT 5'PFS CAG 3'PFS ACC (mixed)
RNA 1: B1 RNA 1
RNA 2: B1 RNA 2 with U52A, G53C, A54C
B11: target 2 MT 5'PFS GCA 3'PFS UGA (mixed)
RNA 1: B1 RNA 1
RNA 2: B1 RNA 2 with C27G, A28C, G29A
B12: target 2 MT 5'PFS AAG 3'PFS ACC (mixed)
RNA 1: B1 RNA 1
RNA 2: B1 RNA 2 with C27A, U52A, G53C, A54C
B13: target 2 MT 5'PFS AAG 3'PFS ACU (mixed)
RNA 1: B1 RNA 1
RNA 2: B1 RNA 2 with C27A, U52A, G53C, A54U
B14: target 2 MT 5'PFS GCA 3'PFS UGU (mixed)
RNA 1: B1 RNA 1
RNA 2: B1 RNA 2 with C27G, A28C, G29A, A54U
B15: target 2 MT 5'PFS UAU 3'PFS GCC (mixed)
RNA 1: B1 RNA 1
RNA 2: B1 RNA 2 with C27U, G29U, U52G, G53C, A54C
B16: target 2 MT 5'PFS AUU 3'PFS UAA (mixed)
RNA 1: B1 RNA 1
RNA 2: B1 RNA 2 with C27A, A28U, G29U, G53A
B17: target 2 MT 5'PFS GAU 3'PFS UCA (mixed)
RNA 1: B1 RNA 1
RNA 2: B1 RNA 2 with C27G, G29U, G53C
B18: target 2 MT 5'PFS GAU 3'PFS UCC (mixed)
RNA 1: B1 RNA 1
RNA 2: B1 RNA 2 with C27G, G29U, G53C, A54C
B19: target 2 MT 5'PFS UAU 3'PFS CGA (mixed)
RNA 1: B1 RNA 1
RNA 2: B1 RNA 2 with C27U, G29U, U52C
B20: target 2 MT 5'PFS UAU 3'PFS AGG (mixed)
RNA 1: B1 RNA 1
RNA 2: B1 RNA 2 with C27U, G29U, U52A, A54G
B21: target 2 MT 5'PFS CUC 3'PFS UUA (mixed)
RNA 1: B1 RNA 1
RNA 2: B1 RNA 2 with A28U, G29C, G53U
B22: target 2 MT 5'PFS CAC 3'PFS ACA (mixed)
RNA 1: B1 RNA 1
RNA 2: B1 RNA 2 with G29C, U52A, G53C
B23: target 2 MT 5'PFS GCA 3'PFS UGC (mixed)
RNA 1: B1 RNA 1
RNA 2: B1 RNA 2 with C27G, A28C, G29A, A54C
B24: target 2 MT 5'PFS CAC 3'PFS ACG (mixed)
RNA 1: B1 RNA 1
RNA 2: B1 RNA 2 with G29C, U52A, G53C, A54G
B25: target 2 MT 5'PFS ACA 3'PFS AUA (mixed)
RNA 1: B1 RNA 1
RNA 2: B1 RNA 2 with C27A, A28C, G29A, U52A, G53U
B26: target 2 MT 5'PFS CUC 3'PFS UUC (mixed)
RNA 1: B1 RNA 1
RNA 2: B1 RNA 2 with A28U, G29C, G53U, A54C
B27: target 2 MT 5'PFS CAG 3'PFS UGC (mixed)
RNA 1: B1 RNA 1
RNA 2: B1 RNA 2 with A54C
B28: target 2 MT 5'PFS UAU 3'PFS CGC (mixed)
RNA 1: B1 RNA 1
RNA 2: B1 RNA 2 with C27U, G29U, U52C, A54C
B29: target 2 MT 5'PFS AAG 3'PFS ACA (mixed)
RNA 1: B1 RNA 1
RNA 2: B1 RNA 2 with C27A, U52A, G53C
B30: target 2 MT 5'PFS UAU 3'PFS CGU (mixed)
RNA 1: B1 RNA 1
RNA 2: B1 RNA 2 with C27U, G29U, U52C, A54U
B31: target 2 MT 5'PFS UUA 3'PFS UGU (mixed)
RNA 1: B1 RNA 1
RNA 2: B1 RNA 2 with C27U, A28U, G29A, A54U
B32: target 2 MT 5'PFS UUA 3'PFS UGC (mixed)
RNA 1: B1 RNA 1
RNA 2: B1 RNA 2 with C27U, A28U, G29A, A54C
B33: target 2 MT 5'PFS UAU 3'PFS AGC (mixed)
RNA 1: B1 RNA 1
RNA 2: B1 RNA 2 with C27U, G29U, U52A, A54C
B34: target 1 C2G,G17C (mixed)
RNA 1: CACCCGUGCAAAAAUGCAGGGGUCUAAAACUGAGCGGAUAACCUCUCUAUGG
RNA 2: GGGAAUGGAUCCACAUCUACGAAUUCGUACCAUACAGAGGUUAUCCGCUGACCGAGAUCGGAAGAGCACACGU
B35: target 1 A1U,C7G (mixed)
RNA 1: B34 RNA 1
RNA 2: B34 RNA 2 with C35G, C45G, G50C, A51U
B36: target 1 U11A,A14G (mixed)
RNA 1: B34 RNA 1
RNA 2: B34 RNA 2 with C35G, A38G, U41A, G50C

Where a chain is given by its changes, count along the chain named. Numbers in names are those of the source.

The data set has as its target T1, EsCas13d, nuclease-dead. The data set can be described thus: crRNA (strand 1, pre-loaded); Mg2+; 40 mM Tris-HCl pH 7.5, 150 mM NaCl, 6 mM MgCl2, 1 mM DTT, 0.1% Tween-20, 0.2 mg/ml BSA; 25 C; 10 min per concentration, then washed. The following applies: tags: His6-TwinStrep-SUMO cleaved; N-terminal SNAP kept (SNAP-Surface 488); label: 3' end held by stalled T7 RNA polymerase.
A word on the Kd: it is the concentration at which binding is half-saturated. A lower Kd goes with higher affinity. For the molecule B1, the affinity, expressed as Kd, was 6.8 ± 1.4 nM.

Turning to B2, the Kd came out at 6.2 ± 1.3 nM.

B3: the dissociation constant (Kd) worked out at 52 ± 11 nM. This Kd is about 8.4-fold higher than that of the molecule before.

As to B4, the Kd is 5.3 ± 0.7 nM.

Consider B5, for which the Kd came to 5.1 ± 0.9 nM.

Take B6: the Kd stood at 21.1 ± 2.7 nM.

On to B7, for which the affinity, expressed as Kd, was 2.7 ± 1.1 nM.

For B8, the Kd is 15.2 ± 1.6 nM.

Regarding B9, the Kd is 15.2 ± 1.5 nM.

For the molecule B10, the Kd was 5.5 ± 1.1 nM.

B11 came in with a Kd of 13 ± 4 nM.

In the case of B12, the Kd was about 27 nM.

B13 registered a Kd of 9 ± 1.3 nM.

For B14, binding was characterised by a dissociation constant (Kd) of 25 ± 5 nM. Compared with the last molecule, the Kd is about 2.8-fold higher.

On to B15, for which the Kd amounted to 43 ± 20 nM.

In turn, B16 yielded a Kd of 5.4 ± 0.8 nM. This Kd lies about 8-fold lower than the previous one.

In turn, B17 had a Kd of 21 ± 7 nM.

B18 yielded a Kd of about 80 nM.

B19 had a Kd of 27 ± 1.9 nM.

In turn, B20 registered a Kd of 28.1 ± 3.3 nM.

As for B21, the Kd is 4.9 ± 0.7 nM.

Turning to B22, the Kd stood at 2.5 ± 0.6 nM.

With B23, the Kd amounted to 12.7 ± 2.3 nM.

With B24, the Kd was found to be 2.8 ± 0.8 nM.

As to B25, the Kd was found to be 5.7 ± 1.1 nM.

Take B26: the Kd came to 6.5 ± 1.6 nM.

The molecule B27 came in with a Kd of 4.7 ± 1.2 nM.

B28 registered a Kd of 75 ± 13 nM.

The molecule B29 gave a Kd of 5 ± 0.9 nM.

B30 yielded a Kd of 15.6 ± 1.8 nM.

Turning to B31, the Kd amounted to 23.1 ± 3 nM. This Kd and that of the molecule before are within 1.5-fold of each other.

In the case of B32, binding was put at a Kd of 33 ± 9 nM.

Consider B33, for which binding was put at a Kd of 21 ± 2.4 nM.

Molecule B34 showed a Kd of 50 ± 6 nM. Against the preceding molecule, the Kd is about 2.4-fold higher.

B35 showed a Kd of 9.9 ± 0.8 nM.

With B36, binding was put at a Kd of 43 ± 4 nM.
